Data on 18 molecules can be found in US20160010147, “ENZYME STALLING METHOD” (OXFORD NANOPORE TECHNOLOGIES LIMITED, published 2016).

Data set [1] addresses T1, T4 Dda-E94C/A360C helicase (Enterobacteria phage T4, UniProt P32270 SEQ:1-439, E94C/A360C, then (ΔM1)G1G2).
T1 sequence: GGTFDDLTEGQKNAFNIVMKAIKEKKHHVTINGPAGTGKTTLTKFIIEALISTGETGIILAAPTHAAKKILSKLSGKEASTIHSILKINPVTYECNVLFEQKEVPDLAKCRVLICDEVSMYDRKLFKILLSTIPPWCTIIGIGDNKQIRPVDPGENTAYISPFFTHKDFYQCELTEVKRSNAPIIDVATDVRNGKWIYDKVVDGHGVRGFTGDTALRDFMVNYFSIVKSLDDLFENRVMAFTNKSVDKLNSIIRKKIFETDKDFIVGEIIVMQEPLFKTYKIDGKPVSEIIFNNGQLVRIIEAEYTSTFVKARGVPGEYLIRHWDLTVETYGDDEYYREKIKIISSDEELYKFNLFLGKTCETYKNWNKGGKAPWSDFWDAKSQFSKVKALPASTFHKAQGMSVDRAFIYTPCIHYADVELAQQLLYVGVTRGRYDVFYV
Put plainly: EMSA; one enzyme bound only at 312.5-5000 nM; 1 uM DNA; 25 mM phosphate pH 8.0, 151.5 mM KCl. The conditions noted are these: 5' ssDNA overhang with duplex. The protocol: (§1) DNA constructs (1 μM or 100 nM final concentration) detailed below in Table 12 were incubated in appropriate buffer with serially diluted T4 Dda-E94C/A360C. The samples were then loaded on 4-20% TBE gels and run at 160 V for 90 minutes. The gels containing entries 1-6 were then stained using SYBR. […] The length of the region labelled 1 is varied from 2 to 50 to optimise conditions so that it is possible to control the number of T4 Dda-E94C/A360C helicases which can bind to the DNA,
In general terms: Mobility shift assays separate free from complexed probe on a gel.

In data set [2] the target is T1, T4 Dda-E94C/A360C helicase. As to the kind of experiment: EMSA; one helicase stalled in at least one buffer with ATP/MgCl2. The conditions noted are these: 50 nt ssDNA overhang with duplex. The method, then: (§2) The annealed DNA complexes (sequences tested are shown in table 11 below) were mixed in a ratio of (1:1, v/v) with T4 Dda-E94C/A360C in 25 mM phosphate pH 8.0, 200 mM KCl giving final concentrations of T4 Dda-E94C/A360C (2000 nM) and DNA (100 nM). The helicase was allowed to bind to the DNA for 2 hours at ambient temperature. Capture strand (SEQ ID NO: 37, 20 μM) was added to each sample to bind any unbound enzyme and the samples incubated at ambient temperature for 30 mins. Buffer was added to the samples (DNA construct from table 11=50 nM, capture DNA (SEQ ID NO: 37)=10 μM and T4 Dda-E94C/A360C=1000 nM) and they were incubated at ambient temperature for one hour (either Buffer 1=25 mM phosphate pH 8.0, 200 mM KCl, 20 mM MgCl2, 10 mM ATP or Buffer 2=25 mM phosphate pH 8.0, 1 M KCl, 25 mM potassium ferricyanide(III), 75 mM potassium ferrocyanide, 20 mM MgCl2, 10 mM ATP). Loading buffer (25 mM Phosphate pH8.0, 151.5 mM KCl, 25% Glycerol, 125 mM EDTA) is added to each sample to quench the helicase activity. The samples were loaded onto 4-20% TBE gel and the gel run at 160 V for 1.5 hours. The Gel was then stained with SYBR gold in order to observe the DNA bands.

Data set [3] has as its target T1, T4 Dda-E94C/A360C helicase. Put plainly: EMSA; unbound DNA only up to 3750 nM; 1 uM DNA. Particulars: 5' ssDNA overhang with duplex. The protocol: as §1
The target of data set [4] is T1, T4 Dda-E94C/A360C helicase. Put plainly: EMSA; up to six enzymes bound at 5000 nM; 1 uM DNA. Particulars: 5' ssDNA overhang with duplex. The protocol: as §1
The target of data set [5] is T1, T4 Dda-E94C/A360C helicase. Put plainly: EMSA; up to two enzymes bound; one faint at 169 nM; 100 nM DNA. The conditions noted are these: 5' ssDNA overhang with duplex. The method, then:
as §1

In data set [6] the target is T1, T4 Dda-E94C/A360C helicase. Put plainly: EMSA; two enzymes bound at 625-5000 nM, one at 312.5 nM; 1 uM DNA. Particulars: 5' ssDNA overhang with duplex. The method, then:
as §1

For data set [7], the target named is T1, T4 Dda-E94C/A360C helicase. As to the kind of experiment: EMSA; up to five helicases bound; one, faintly two, stalled after ATP/MgCl2. Particulars: 50 nt ssDNA overhang with duplex. The protocol:
as §2

In data set [8] the target is T1, T4 Dda-E94C/A360C helicase. As to the kind of experiment: EMSA; up to two enzymes bound; unbound only at 169 nM; 100 nM DNA. Particulars: 5' ssDNA overhang with duplex. The protocol: as §1
Data set [9] has as its target T1, T4 Dda-E94C/A360C helicase. As to the kind of experiment: EMSA; up to five helicases bound; one helicase stalled after ATP/MgCl2. The conditions noted are these: 50 nt ssDNA overhang with duplex. The protocol:
as §2

For data set [10], the target named is T1, T4 Dda-E94C/A360C helicase. Put plainly: EMSA; up to five helicases bound; ATP/MgCl2 gives strand displacement. The conditions noted are these: 50 nt ssDNA overhang with duplex. The protocol: as §2
Data set [11] deals with T1, T4 Dda-E94C/A360C helicase. As to the kind of experiment: EMSA; one helicase bound from 238 nM, two from 475 nM up to 3800 nM; 100 nM DNA. The conditions noted are these: two 10T ssDNA regions. The method, then:
T4 Dda E94C/A360C was buffer exchanged into 25 mM phosphate pH 8.0, 151.5 mM KCl and serially diluted. The helicase and DNA were then mixed (1:1, v/v) with the DNA construct samples 9 and 10 described above (final concentration DNA=100 nM, helicase concentrations investigated=3800 nM, 1900 nM, 950 nM, 475 nM, 238 nM, 0 nM). The DNA and enzyme volumes were then incubated at ambient temperature for 1.5 hours. Dye free loading buffer (5×, 7.5 μL) was added to each sample (30 μL). Each sample (37.5 μL) was then loaded onto 4-20% TBE gel and run at 160 V for 90 minutes. The gel was then stained using SYBR.

B1: Table 12 construct 1 (10T region) (mixed)
DNA 1: TTTTTTTTTTTCGCTGCTCCACAGGTCTCAGCTTGAGCAGCGA
DNA 2: TCGCTGCTCAAGCTGAGACCTGTGGAGCAGCGA
modifications: 5 iSpC3 at 5' end; 4 iSpC3 between SEQ 37 and SEQ 36
Turning to B1, the binding result in data set [1] is given as “binds”.

B2: Table 11 construct 4 (12 iSpC3) (mixed)
DNA 1: TTTTTTTTTTTTTTTTTTTTTTTTTTTTTTTTTTTTTTTTTTTTTTTTTTTCGCTGCTCCACAGGTCTCAGCTTGAGCAGCGA
DNA 2: TCGCTGCTCAAGCTGAGACCTGTGGAGCAGCGA
modifications: 12 iSpC3 between SEQ 9 and SEQ 36
Turning to B2, in data set [2], the binding result is reported as “binds”.

B3: Table 11 construct 2 (4 iSpC3) (mixed)
DNA 1: TTTTTTTTTTTTTTTTTTTTTTTTTTTTTTTTTTTTTTTTTTTTTTTTTTTCGCTGCTCCACAGGTCTCAGCTTGAGCAGCGA
DNA 2: TCGCTGCTCAAGCTGAGACCTGTGGAGCAGCGA
modifications: 4 iSpC3 between SEQ 9 and SEQ 36
As to B3, the binding result in [2] was “binds”.

B4: Table 11 construct 6 (2 iSp18) (mixed)
DNA 1: TTTTTTTTTTTTTTTTTTTTTTTTTTTTTTTTTTTTTTTTTTTTTTTTTTTCGCTGCTCCACAGGTCTCAGCTTGAGCAGCGA
DNA 2: TCGCTGCTCAAGCTGAGACCTGTGGAGCAGCGA
modifications: 2 iSp18 between SEQ 9 and SEQ 36
In the case of B4, in data set [2], the binding result is listed as “binds”.

B5: Table 12 construct 4 (2T region) (mixed)
DNA 1: TTTCGCTGCTCCACAGGTCTCAGCTTGAGCAGCGA
DNA 2: TCGCTGCTCAAGCTGAGACCTGTGGAGCAGCGA
modifications: 5 iSpC3 at 5' end; 4 iSpC3 between TT and SEQ 36
Turning to B5, the binding result in data set [3] is “no binding”.

B6: Table 12 construct 3 (50T region) (mixed)
DNA 1: TTTTTTTTTTTTTTTTTTTTTTTTTTTTTTTTTTTTTTTTTTTTTTTTTTTCGCTGCTCCACAGGTCTCAGCTTGAGCAGCGA
DNA 2: TCGCTGCTCAAGCTGAGACCTGTGGAGCAGCGA
modifications: 5 iSpC3 at 5' end; 4 iSpC3 between SEQ 9 and SEQ 36
B6: the binding result in [4] was “binds”.

B7: Table 11 construct 3 (8 iSpC3) (mixed)
DNA 1: TTTTTTTTTTTTTTTTTTTTTTTTTTTTTTTTTTTTTTTTTTTTTTTTTTTCGCTGCTCCACAGGTCTCAGCTTGAGCAGCGA
DNA 2: TCGCTGCTCAAGCTGAGACCTGTGGAGCAGCGA
modifications: 8 iSpC3 between SEQ 9 and SEQ 36
In the case of B7, in [2], the binding result is reported as “binds”.

B8: Table 12 construct 7 (16T region) (mixed)
DNA 1: TTTTTTTTTTTTTTTTTCGCTGCTCCACAGGTCTCAGCTTGAGCAGCGA
DNA 2: TCGCTGCTCAAGCTGAGACCTGTGGAGCAGCGA
modifications: 5 iSpC3 at 5' end; 4 iSp18 between SEQ 39 and SEQ 36
For B8, in data set [5], the binding result is given as “binds”.

B9: Table 12 construct 2 (20T region) (mixed)
DNA 1: TTTTTTTTTTTTTTTTTTTTTCGCTGCTCCACAGGTCTCAGCTTGAGCAGCGA
DNA 2: TCGCTGCTCAAGCTGAGACCTGTGGAGCAGCGA
modifications: 5 iSpC3 at 5' end; 4 iSpC3 between SEQ 38 and SEQ 36
With B9, in data set [6], the binding result is “binds”.

B10: Table 11 construct 5 (1 iSp18) (mixed)
DNA 1: TTTTTTTTTTTTTTTTTTTTTTTTTTTTTTTTTTTTTTTTTTTTTTTTTTTCGCTGCTCCACAGGTCTCAGCTTGAGCAGCGA
DNA 2: TCGCTGCTCAAGCTGAGACCTGTGGAGCAGCGA
modifications: 1 iSp18 between SEQ 9 and SEQ 36
In the case of B10, in data set [2], the binding result is “binds”.

B11: Table 11 construct 8 (4 iSp18) (mixed)
DNA 1: TTTTTTTTTTTTTTTTTTTTTTTTTTTTTTTTTTTTTTTTTTTTTTTTTTTCGCTGCTCCACAGGTCTCAGCTTGAGCAGCGA
DNA 2: TCGCTGCTCAAGCTGAGACCTGTGGAGCAGCGA
modifications: 4 iSp18 between SEQ 9 and SEQ 36
Take B11: in data set [7], the binding result is reported as “binds”.

B12: Table 12 construct 8 (18T region) (mixed)
DNA 1: TTTTTTTTTTTTTTTTTTTCGCTGCTCCACAGGTCTCAGCTTGAGCAGCGA
DNA 2: TCGCTGCTCAAGCTGAGACCTGTGGAGCAGCGA
modifications: 5 iSpC3 at 5' end; 4 iSp18 between SEQ 40 and SEQ 36
For the molecule B12, in [8], the binding result is “binds”.

B13: Table 12 construct 5 (4T region) (mixed)
DNA 1: TTTTTCGCTGCTCCACAGGTCTCAGCTTGAGCAGCGA
DNA 2: TCGCTGCTCAAGCTGAGACCTGTGGAGCAGCGA
modifications: 5 iSpC3 at 5' end; 4 iSpC3 between T4 and SEQ 36
In the case of B13, the binding result in data set [3] is “no binding”.

B14: Table 11 construct 9 (5 iSp18) (mixed)
DNA 1: TTTTTTTTTTTTTTTTTTTTTTTTTTTTTTTTTTTTTTTTTTTTTTTTTTTCGCTGCTCCACAGGTCTCAGCTTGAGCAGCGA
DNA 2: TCGCTGCTCAAGCTGAGACCTGTGGAGCAGCGA
modifications: 5 iSp18 between SEQ 9 and SEQ 36
On to B14, for which, in data set [7], the binding result is “binds”.

B15: Table 11 construct 7 (3 iSp18) (mixed)
DNA 1: TTTTTTTTTTTTTTTTTTTTTTTTTTTTTTTTTTTTTTTTTTTTTTTTTTTCGCTGCTCCACAGGTCTCAGCTTGAGCAGCGA
DNA 2: TCGCTGCTCAAGCTGAGACCTGTGGAGCAGCGA
modifications: 3 iSp18 between SEQ 9 and SEQ 36
With B15, in [9], the binding result is recorded as “binds”.

B16: Table 11 construct 1 (no spacers) (mixed)
DNA 1: TTTTTTTTTTTTTTTTTTTTTTTTTTTTTTTTTTTTTTTTTTTTTTTTTTTCGCTGCTCCACAGGTCTCAGCTTGAGCAGCGA
DNA 2: TCGCTGCTCAAGCTGAGACCTGTGGAGCAGCGA
Consider B16, for which, in data set [10], the binding result was “binds”.

B17: Table 16 construct 9 (non-forked) (mixed)
DNA 1: TTTTTTTTTTTTTTTTTTTTGGTTGTTTCTGTTGGTGCTGATATTGCGCCATCAGATTGTGTTTGTTAGTCGCT
DNA 2: GCAATATCAGCACCAACAGAAACAACC
DNA 3: AGCGACTAACAAACACAATCTGATGGC
modifications: 25 SpC3 at 5' end; 2 iSp18 after each SEQ 37; 4 nitroindoles between SEQ 10 and SEQ 41
With B17, the binding result in [11] (two duplexes) is “binds”.

B18: Table 16 construct 10 (forked) (mixed)
DNA 1: TTTTTTTTTTTTTTTTTTTTGGTTGTTTCTGTTGGTGCTGATATTGCGCCATCAGATTGTGTTTGTTAGTCGCT
DNA 2: GCAATATCAGCACCAACAGAAACAACCT
DNA 3: AGCGACTAACAAACACAATCTGATGGC
modifications: 25 SpC3 at 5' end; 2 iSp18 after each SEQ 37; 4 nitroindoles between SEQ 10 and SEQ 41; 6 iSp18 at 3' end of SEQ 12
Take B18: in data set [11] (forked duplex), the binding result is reported as “binds”.
